Experimental data as given in publication PMC6062497.
“And” between values parts separate entries of the source, which are not always exact repeats. Equal entries are not always repeated.

Biological target: TRAIL receptors on SK-Mel-3 cells
Conditions: ligand

Substance: GpL-FLAG-TNC-TRAIL (from UniProt P10039)
- Kd: 4.82 nM and 2.32 nM
